Results published in the supplement of paper PMC10567573.

B1: CAMK2A (parent)
chain: CIQQILEAVLHCHQMGVVHRDLKP

Variants of: B1
Assay: protein stability index of a GFP-peptide fusion (GPS, HEK-293T) (PSI 1-6); higher = more stable
Conditions: c terminus: a fixed tail appended
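Also: lentivirally expressed fusions sorted by FACS into six bins by GFP to DsRed ratio, PSI derived from sequencing read proportions per bin multiplied by bin number.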

Variant | protein stability index
CIQQICEAVLHCHQMGVVHRDLKP | 1.84
CIQQIKEAVLHCHQMGVVHRDLKP | 2.4
CIQQIVEAVLHCHQMGVVHRDLKP | 2.88
CIQQISEAVLHCHQMGVVHRDLKP | 1.71
CIQQIGEAVLHCHQMGVVHRDLKP | 2.14
CIQQIQEAVLHCHQMGVVHRDLKP | 2.09
CIQQIREAVLHCHQMGVVHRDLKP | 1.97
CIQQIPEAVLHCHQMGVVHRDLKP | 1.83
CIQQIYEAVLHCHQMGVVHRDLKP | 2.13
CIQQIEEAVLHCHQMGVVHRDLKP | 2.44
CIQQINEAVLHCHQMGVVHRDLKP | 1.98
CIQQITEAVLHCHQMGVVHRDLKP | 1.69
CIQQIAEAVLHCHQMGVVHRDLKP | 1.4
CIQQIFEAVLHCHQMGVVHRDLKP | 1.07
CIQQIIEAVLHCHQMGVVHRDLKP | 2.64
CIQQIHEAVLHCHQMGVVHRDLKP | 1.77
CIQQIMEAVLHCHQMGVVHRDLKP | 2.75
CIQQIWEAVLHCHQMGVVHRDLKP | 1.87
CIQQIDEAVLHCHQMGVVHRDLKP | 2.93
CAQQILEAVLHCHQMGVVHRDLKP | 2.45
CKQQILEAVLHCHQMGVVHRDLKP | 1.22
CRQQILEAVLHCHQMGVVHRDLKP | 2.21
CWQQILEAVLHCHQMGVVHRDLKP | 1.35
CNQQILEAVLHCHQMGVVHRDLKP | 1.32

Variant | protein stability index
CPQQILEAVLHCHQMGVVHRDLKP | 2.07
CEQQILEAVLHCHQMGVVHRDLKP | 1.78
CTQQILEAVLHCHQMGVVHRDLKP | 1.79
CQQQILEAVLHCHQMGVVHRDLKP | 1.72
CHQQILEAVLHCHQMGVVHRDLKP | 1.68
CDQQILEAVLHCHQMGVVHRDLKP | 2.09
CGQQILEAVLHCHQMGVVHRDLKP | 1.99
CVQQILEAVLHCHQMGVVHRDLKP | 2.74
CSQQILEAVLHCHQMGVVHRDLKP | 1.56
CCQQILEAVLHCHQMGVVHRDLKP | 3.15
CIQQILEAVLHCDQMGVVHRDLKP | 2.57
CIQQILEAVLHCRQMGVVHRDLKP | 1.55
CIQQILEAVLHCQQMGVVHRDLKP | 1.22
CIQQILEAVLHCIQMGVVHRDLKP | 2.85
CIQQILEAVLHCKQMGVVHRDLKP | 1.73
CIQQILEAVLHCYQMGVVHRDLKP | 3.92
CIQQILEAVLHCMQMGVVHRDLKP | 2.07
CIQQILEAVLHCWQMGVVHRDLKP | 1.27
CIQQILEAVLHCGQMGVVHRDLKP | 3.66
CIQQILEAVLHCFQMGVVHRDLKP | 1.28
CIQQILEAVLHCCQMGVVHRDLKP | 2.35
CIQQILEAVLHCEQMGVVHRDLKP | 2.49
CIQQILEAVLHCNQMGVVHRDLKP | 2.28
CIQNILEAVLHCHQMGVVHRDLKP | 2.68

Variant | protein stability index
CIQLILEAVLHCHQMGVVHRDLKP | 2.55
CIQYILEAVLHCHQMGVVHRDLKP | 2.07
CIQKILEAVLHCHQMGVVHRDLKP | 1.93
CIQPILEAVLHCHQMGVVHRDLKP | 1.69
CIQGILEAVLHCHQMGVVHRDLKP | 5.02
CIQRILEAVLHCHQMGVVHRDLKP | 2.94
CIQTILEAVLHCHQMGVVHRDLKP | 2.74
CIQDILEAVLHCHQMGVVHRDLKP | 2.04
CIQAILEAVLHCHQMGVVHRDLKP | 1.96
CIQHILEAVLHCHQMGVVHRDLKP | 2.13
CIQMILEAVLHCHQMGVVHRDLKP | 1.92
CIQQILEAVLHPHQMGVVHRDLKP | 1.53
CIQQILEAVLHWHQMGVVHRDLKP | 2.65
CIQQILEAVLHVHQMGVVHRDLKP | 2.82
CIQQILEAVLHGHQMGVVHRDLKP | 1.18
CIQQILEAVLHTHQMGVVHRDLKP | 2.74
CIQQILEAVLHYHQMGVVHRDLKP | 3.8
CIQQILEAVLHAHQMGVVHRDLKP | 2.34
CIQQILEAVLHRHQMGVVHRDLKP | 4.86
CIQQILEAVLHEHQMGVVHRDLKP | 2.58
CIQQILEAVLHIHQMGVVHRDLKP | 2.66
CIQQILEAVLHMHQMGVVHRDLKP | 2.79
CIQQILEAVLHKHQMGVVHRDLKP | 1.82
CIQQILEAVLHHHQMGVVHRDLKP | 2.98

Variant | protein stability index
CIQQILEAVLHDHQMGVVHRDLKP | 1.54
CIQQILEAVLHLHQMGVVHRDLKP | 3.33
CIQQILEAVLHNHQMGVVHRDLKP | 3.26
CICQILEAVLHCHQMGVVHRDLKP | 3.04
CIPQILEAVLHCHQMGVVHRDLKP | 3.19
CIAQILEAVLHCHQMGVVHRDLKP | 3.85
CIYQILEAVLHCHQMGVVHRDLKP | 3.67
CIGQILEAVLHCHQMGVVHRDLKP | 3.91
CIHQILEAVLHCHQMGVVHRDLKP | 3.11
CIFQILEAVLHCHQMGVVHRDLKP | 2.24
CIDQILEAVLHCHQMGVVHRDLKP | 3.17
CIKQILEAVLHCHQMGVVHRDLKP | 2.77
CIVQILEAVLHCHQMGVVHRDLKP | 3.85
CIIQILEAVLHCHQMGVVHRDLKP | 2.81
CITQILEAVLHCHQMGVVHRDLKP | 3.42
CIQQILAAVLHCHQMGVVHRDLKP | 2.02
CIQQILCAVLHCHQMGVVHRDLKP | 3.72
CIQQILQAVLHCHQMGVVHRDLKP | 2.55
CIQQILTAVLHCHQMGVVHRDLKP | 1.99
CIQQILIAVLHCHQMGVVHRDLKP | 2.74
CIQQILMAVLHCHQMGVVHRDLKP | 4.26
CIQQILGAVLHCHQMGVVHRDLKP | 4.42
